Measured values from patent publication US20250355001A1, “METHOD FOR DETECTING A TAU PROTEIN FRAGMENT IN A SAMPLE” (GTINVENT LIMITED, priority 2022, published 2025).
Numbering of substitutions follows the chain as printed.

B1: E2B7: dGAE (391E) specific clone, Table 9; SEQ ID NO: 254 (protein)
scFv: QVQLQESGPSLVKPSQTLSLTCTVSGFSLTSWGVAWVRQAPGKALEWLGTMRSGGGTEYNPALKSRLSITRDTSKSQVSLSLSSVTTEDMAMYYCARGYLSGIHYAWGRGLLVSVSSEGKSSGASGESKVDDQAVLTQLSSVSGSLGQRVSITCSGSSSNVGDGDYVGWFQQLPGSAPKLLIYSARNRASGVPDRFSGSRSGNTATLTITSLQAEDEADYYCASIDTSRSHIFGSGTRLTVLG
modifications: E2B7 amino acid sequence
B2: ME12: sheep-derived anti-tau clone, CDRs in Table 1 (protein)
CDR 1: SNAVG
CDR 2: GCSSDGKCYHNSALKS
CDR 3: GFYSIYGYDYSGTIDY
CDR 4: SGSSSNVGGGNSVG
CDR 5: NTNSRPS
CDR 6: VTGDSSTHDDL
modifications: VHCDR1 ME12, NS3D9; VHCDR1 S1D2, S1H6, S2C3; VHCDR1 MC5, MD12; VHCDR1 3aA6, VHCDR1 CE3; VHCDR2 ME12; VHCDR3 ME12; VLCDR1 S1D12, ME12; VLCDR2 ME12; VLCDR3 ME12
B3: S1F4: anti-tau clone, Table 2; SEQ ID NO: 414 (protein)
scFv: QVQLQESGPSLVKPSQTLSLTCTVSGFSLSSNSVGWVRQAPGKAPEWVAGIDTDGEEGYNPALNSRLSITRDTSKSQVSLSLSSVTSEDTAVYYCVRSYRADGLAYGYVQAIDYWGPGLLLTISSEGKSSGASGESKVDDQAVVTQPSSVSGSLGQRVSITCSGSFIGISSVGWFQQLPGSGLRTVIVASDGRPSGVPDRFSNSKSGNTATLTISSLQAEDEADYFCGSSDRTQYTGVFGSGTRLTVLG
modifications: S1F4 amino acid sequence
B4: S1B1: anti-tau clone, Table 2; SEQ ID NO: 412 (protein)
scFv: B3 scFv with A101T, L121V, I123V, V144L
modifications: S1B1 amino acid sequence
B5: S1D9: anti-tau clone, Table 2; SEQ ID NO: 413 (protein)
scFv: QVQLQESGPSLVKPSQTLSLTCTVSGFSLTSNSVGWVRQAPGKAPEWVAGIDSDGEEGYNPALNSRLSITRDTSKNQVSLSLSRVTSEDTAVYYCGRTYRTDGYAYGYVQAIDYWGPGLLVTVSSEGKSSGASGESKVDDRVMLTQPPSVSGSPGQTVSITCSGSFIGISSVGWFQQLPGSGLRTVIFASDGRPSGVPDRFSNSKSGNTATLTISSLQAEDEADYFCGSSDRTQYTGVFGSGTRLTVLS
modifications: S1D9 amino acid sequence
B6: S2C6: anti-tau clone, Table 2; SEQ ID NO: 416 (protein)
scFv: QVQLQESGPSLVKPSQTLSLTCTVSGFSLISNSVGWVRQAPGKAPEWVAGIDTDGEEGYNPALKSQYAASDPDTSKSQVSLSLSSVTSEDTAVYYCGRTYRTDGFAYGYVQAIDYWGPGLLLTISSEGKSSGASGESKVDDQAVLTQPSSVSGSLGQRVSITCSGSFIGISSVGWFQQLPGSGLRTIIVASDGRPSGVPDRFSMSKSGNTATLTISSLQAEDEADYFCGSSDRTQYTGVFGSGTRLTVLG
modifications: S2C6 amino acid sequence
B7: 412E10: C-terminal anti-tau clone, Table 5; SEQ ID NO: 147 (protein)
chain: QVQLQESGPSLVKPSQTLSLTCTVSGFSVISDSVAWVRQAPGKVPEWLGASGSSGNKYYNPALKSRLSITRDTSKSQVSLSLSSVTTEDTAVYYCARGIIAGVDVWGRGLLVTVSSEGKSSGASGESKVDDQAVLTQPSSVSGSLGQRVSITCSGSSSNVGYGNYVGWYQQVPGSAPKLLIYGTAIRASGVPDRFSGSRSGDTATLTITSLQAEDEADYYCASYQSNYAFFGSGTRLTVLG
modifications: 412E10 amino acid sequence
B8: 412E6: C-terminal anti-tau clone, Table 5; sequence in b349 (protein)
scAb: QVQLQESGPSLVKPSETLSLTCTVSGFSLTNYGVGWVRQAPGKALEWLGNIYSGGSTYYNPALKSRLSITRDTSKSQVSLSLNSVTLEDTAVYYCGRGGVGSVDVWGPGLLVTVSSEGKSSGASGESKVDDQAVLTQPPSVSGSPGQRVSITCSGGRNNIGRGTFVDWYQQLPGSGLKTVIYGTDRRPPGVPDRFSGSKTGNAATLTITSLQAEDEADYWCATYDYSNDMIILGSGTRLTVLG
B9: 412G11: C-terminal anti-tau clone, Table 5; SEQ ID NO: 434 (protein)
chain: QVRLQESGPSLVKPSQTLSLTCTVSGFSLTSYALGWVRQAPGRAPEWIGNIWRGGRIEYNPALKSRLSITRDTSKSQVSLSLSSVTTEDTAVYYCSRSGGDWGPGLLVTVSSEGKSSGASGESKVDDQAVLTQPSSVSGSLGQRVSITCSGSSSNVGYGNYVGWYQQVPGSAPKLLIYGATSRASGVPDRFSGSRSENTATLTISSLQAEDEADYYCASYDRSESVVFGSGTRLTVLG
modifications: 412G11 amino acid sequence
B10: 412B9: C-terminal anti-tau clone, Table 5; SEQ ID NO: 417 (protein)
chain: QVQLQESGPSLVKPSQTLSLTCTVSGFSVISDSVAWVRQAPGKVPEWLGASGSSGNKYYNPALKSRLSITRDTSKSQVSLSLSSVTTEDTAVYYCARGIIAGVDVWGRGLLVSVSSEGKSSGASGESKVDDQAVLTQPSSVSGALGQRVSITCSGSSSNVGYGDYVGWYQQVPGSAPKLLIYGAASRASGVPDRFSGSRSGNTATLTISSLQAEDEADYYCASYDSSDGGVFGSGTRLTVLG
modifications: 412B9 amino acid sequence

System: hT40, dGA, dGAE and truncated tau fragments
Assay: Binding ELISA / epitope mapping of anti-tau scAbs with truncated tau proteins and 13mer peptides
Design: species or system human
Conditions: ELISA, 'E' group scAbs
Protocol: A series of binding ELISA was performed using various truncated versions of the tau protein and 13mer peptide libraries spanning the entire hT40 molecule for mapping the epitopes of anti-tau scAbs (Full list of protein antigens used is given in Table 14). In general, ELISA plates were coated with 1 μg/ml hT40 or dGA or dGAE or other truncated versions of the protein and in the case of biotinylated peptides, plates were coated with 5 μg/ml Streptavidin followed by 1 μg/ml biotinylated peptide. The plates were blocked with 2% MPBS and scAb samples added at desired starting concentrations and double diluted across the plate. Binding was detected using anti-Human C Kappa HRP conjugated secondary antibody and the resulting immunoreaction was developed and absorbance values measured as described above.
Selected E specific scAbs and their specific binding to dGAE is shown below (FIG. 8A-E).
Similarly, dGA binding ‘NS’, ‘S’ and ‘M’ group scAbs were subjected to further antigen binding ELISA using shorter tau proteins and biotinylated 13mer peptides as shown below (FIG. 10A-F) and (FIG. 11A-R).

Row | cross-reactivity using hT40, dGA and dGAE antigens | Molecule
1 | specific dGAE binding | B1

Same assay, conditions: Table 15; binding ELISA; residue numbers of hT40

Row | Tau proteins/fragments with positive scAb reactivity | Molecule
2 | 297-391 (dGAE) | B1

Same assay, conditions: Table 16; NS, S and M clones; binding ELISA

Row | Molecule | Tau proteins/fragments with positive scAb reactivity
3 | B2 | hT40, 297-390 (dGA), 297-391 (dGAE), 341-353, 337-349, 339-351
4 | B3 | hT40, 297-390 (dGA), 297-391 (dGAE), 369-390, 369-391
5 | B4 | hT40, 297-390 (dGA), 297-391 (dGAE)
6 | B5 | hT40, 297-390 (dGA), 297-391 (dGAE)
7 | B6 | hT40, 297-390 (dGA), 297-391 (dGAE), 369-390, 369-391

Same assay, conditions: Table 16; NS, S and M clones; incl. 13mer peptides

Row | Shortest region bound on hT40 | Molecule
8 | 337-355 | B2
9 | 367-379 | B3
10 | 367-379 | B4
11 | 367-379 | B5
12 | 367-379 | B6

Same assay, conditions: Table 28 (LoD table); residues of hT40

Row | Detection scAb (Epitope) | Molecule
13 | 412E10 (412-441) | B7

Same assay, conditions: residue numbers of SEQ ID NO: 1 (hT40); CDR Tables 1-11

Row | Epitope | Molecule
14 | 412-441 | B8
15 | 337-355 | B2
16 | 367-379 | B3
17 | 367-379 | B4
18 | 412-441 | B7
19 | 412-441 | B9
20 | 412-441 | B10
21 | 367-379 | B5
22 | 367-379 | B6
